According to the supplement of paper PMC7877785:
± gives the uncertainty stated by the source.

Experiment: self-splicing fitness, log relative to wild type (ln ratio); higher = more splicing; Tetrahymena group I intron in knt gene, E. coli kanamycin selection, DiMSum; sequences stand for … in CUCUCU…GGAGGGAAAAGUUAUCAGGCAUGCACCUGGUAGCUAGUCUUUAAACCAAUAGAUUGCAUCGGUUUAAAAGGCAAGACCGUCAAAUUGCGGGAAAGGGGUCAACAGCCGUUCAGUACCAAGUCUCAGGGGAAACUUUGAGAUGGCCUUGCAAAGGGUAUGGUAAUAAGCUGACGGACAUGGUCCUAACCACGCAGCCAAGUCCUAAGUCAACAGAUCUUCUGUUGAUAUGGAUGCAGUUCACAGACUAAAUGUCGGUCGGGGAAGAUGUAUUCUUCUCAUAAGAUAUAGUCGGACCUCUCCUUAAUGGGAGCUAGCGGAUGAAGUGAUGCAACACUGGAGCCGCUGGGAACUAAUUUGUAUGCGAAAGUAUAUUGAUUAGUUUUGGAGUACUCGUGGUCG
Outline: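 A randomised library covering all eight P1ex-region intron nucleotides was built with the intron in the knt kanamycin-resistance gene on pET-22b(+) and held in E. coli BL21(DE3). Cells were grown overnight at 37°C or 30°C on LB agar, with or without 25 μg/mL kanamycin, plus 100 μg/mL carbenicillin, 50 μM IPTG and 0.2% rhamnose, and pooled colonies were amplicon-sequenced on an Illumina HiSeq 2500. DiMSum fitness is the error-weighted combination of wild-type-normalised replicate fold changes, kanamycin versus none.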

Row | Sequence | self-splicing fitness (ln) (30 °C) | self-splicing fitness (ln) (37 °C)
1 | UCAAAGCAAUAUUACGAUAU | -3.62 ± 0.23 | -2.67 ± 0.18
2 | UCAAAGCAAUAUUACGAUCA | -0.91 ± 0.12 | -0.719 ± 0.11
3 | UCAAAGCAAUAUUACGAUCC | -3.21 ± 0.3 | -2.34 ± 0.4
4 | UCAAAGCAAUAUUACGCAUA | -2.68 ± 0.17 | -1.62 ± 0.16
5 | UCAAAGCAAUAUUACGCCAA | -2.7 ± 0.28 | -2.12 ± 0.37
6 | UCAAAGCAAUAUUACGCCGU | -2.43 ± 0.18 | -0.576 ± 0.12
7 | UCAAAGCAAUAUUACGCGGU | -2.75 ± 0.14 | -2.97 ± 0.16
8 | UCAAAGCAAUAUUACGCUCG | -0.615 ± 0.081 | -0.0673 ± 0.12
9 | UCAAAGCAAUAUUACGCUUA | -2.87 ± 0.14 | -2.53 ± 0.17
10 | UCAAAGCAAUAUUACGCUUC | -4.01 ± 0.23 | -2.02 ± 0.23
11 | UCAAAGCAAUAUUACGGACU | -3.52 ± 0.3 | -2.27 ± 0.25
12 | UCAAAGCAAUAUUACGGAGA | -3.38 ± 0.28 | -1.61 ± 0.17
13 | UCAAAGCAAUAUUACGGGUG | -0.366 ± 0.056 | 0.234 ± 0.074
14 | UCAAAGCAAUAUUACGGUGA | -0.776 ± 0.098 | -0.408 ± 0.11
15 | UCAAAGCAAUAUUACGGUUC | -4.38 ± 0.22 | -2.5 ± 0.15
16 | UCAAAGCAAUAUUACGUAAG | -1.77 ± 0.08 | -0.788 ± 0.1
17 | UCAAAGCAAUAUUACGUUAG | -2.02 ± 0.12 | -1.64 ± 0.12
18 | UCAAAGCAAUAUUACGUUAU | -3.43 ± 0.18 | -3.37 ± 0.35
19 | UCAAAGCAAUAUUACGUUCG | -1.17 ± 0.087 | -0.407 ± 0.12
20 | UCAAAGCAAUAUUACGUUUU | -3.28 ± 0.16 | -3.18 ± 0.3
21 | UCACAGCAAUAUUACGAACU | -3.39 ± 0.16 | -2.23 ± 0.15
22 | UCACAGCAAUAUUACGAAUU | -4.34 ± 0.22 | -2.4 ± 0.16
23 | UCACAGCAAUAUUACGACAA | -1.3 ± 0.13 | -0.0758 ± 0.096
24 | UCACAGCAAUAUUACGACAC | -3.44 ± 0.38 | -2.71 ± 0.34

Row | Sequence | self-splicing fitness (ln) (30 °C) | self-splicing fitness (ln) (37 °C)
25 | UCACAGCAAUAUUACGACAG | -2.15 ± 0.082 | -1.47 ± 0.088
26 | UCACAGCAAUAUUACGACCA | -1.89 ± 0.21 | 0.0251 ± 0.21
27 | UCACAGCAAUAUUACGACGC | -2.07 ± 0.15 | -1.03 ± 0.2
28 | UCACAGCAAUAUUACGAUAA | -1.65 ± 0.066 | -0.733 ± 0.074
29 | UCACAGCAAUAUUACGAUGU | -4.15 ± 0.29 | -1.77 ± 0.17
30 | UCACAGCAAUAUUACGCCGU | -4.25 ± 0.46 | -3.02 ± 0.35
31 | UCACAGCAAUAUUACGCGUG | -2.87 ± 0.14 | -2.13 ± 0.14
32 | UCACAGCAAUAUUACGGAGC | -2.68 ± 0.15 | -2.04 ± 0.22
33 | UCACAGCAAUAUUACGGCCC | -3.44 ± 0.45 | -1.82 ± 0.44
34 | UCACAGCAAUAUUACGGCUA | -1.64 ± 0.095 | -0.219 ± 0.077
35 | UCACAGCAAUAUUACGGCUG | -3.35 ± 0.16 | -2.96 ± 0.23
36 | UCACAGCAAUAUUACGGGGA | -1.15 ± 0.065 | 0.015 ± 0.076
37 | UCACAGCAAUAUUACGGUUU | -2.56 ± 0.068 | -1.15 ± 0.067
38 | UCACAGCAAUAUUACGUAAA | -2.14 ± 0.069 | -1.18 ± 0.084
39 | UCACAGCAAUAUUACGUAGC | -2.87 ± 0.18 | -1.34 ± 0.21
40 | UCACAGCAAUAUUACGUAGU | -3.38 ± 0.12 | -2.6 ± 0.17
41 | UCACAGCAAUAUUACGUGAA | -2.36 ± 0.1 | -1.4 ± 0.1
42 | UCACAGCAAUAUUACGUUUA | -2.53 ± 0.13 | -0.819 ± 0.082
43 | UCAGAGCAAUAUUACGAGUU | -2.22 ± 0.2 | -0.115 ± 0.27
44 | UCAGAGCAAUAUUACGCAUU | -3.35 ± 0.43 | -0.634 ± 0.19
45 | UCAGAGCAAUAUUACGCCCU | – | -2.21 ± 0.39
46 | UCAGAGCAAUAUUACGCGGU | -4.12 ± 0.33 | -3.04 ± 0.32
47 | UCAGAGCAAUAUUACGGACG | -3.67 ± 0.44 | -1.58 ± 0.2
48 | UCAGAGCAAUAUUACGGAUU | -3.58 ± 0.19 | -2.68 ± 0.23

Row | Sequence | self-splicing fitness (ln) (30 °C) | self-splicing fitness (ln) (37 °C)
49 | UCAGAGCAAUAUUACGGCCC | -2.13 ± 0.39 | -0.0611 ± 0.34
50 | UCAGAGCAAUAUUACGGCCU | -2.39 ± 0.34 | -2.73 ± 0.31
51 | UCAGAGCAAUAUUACGGGAA | – | -2.4 ± 0.2
52 | UCAGAGCAAUAUUACGGUAA | -3.7 ± 0.47 | -1.85 ± 0.41
53 | UCAGAGCAAUAUUACGUACG | -1.96 ± 0.24 | -1.96 ± 0.28
54 | UCAGAGCAAUAUUACGUACU | -3.35 ± 0.34 | -2.24 ± 0.3
55 | UCAGAGCAAUAUUACGUCCA | -3.75 ± 0.47 | -2.25 ± 0.39
56 | UCAGAGCAAUAUUACGUCUG | -2.88 ± 0.12 | -2.35 ± 0.14
57 | UCAGAGCAAUAUUACGUGCU | -3.09 ± 0.2 | -3.07 ± 0.28
58 | UCAGAGCAAUAUUACGUGUC | -4.13 ± 0.31 | -2.63 ± 0.23
59 | UCAGAGCAAUAUUACGUUCU | -3.86 ± 0.22 | -2.47 ± 0.25
60 | UCAGAGCAAUAUUACGUUGG | -3.05 ± 0.21 | -2.9 ± 0.35
61 | UCAUAGCAAUAUUACGACCG | -1.36 ± 0.16 | -0.325 ± 0.22
62 | UCAUAGCAAUAUUACGAGUA | -3.06 ± 0.23 | 0.0724 ± 0.12
63 | UCAUAGCAAUAUUACGCAGG | -3.24 ± 0.17 | -3.01 ± 0.17
64 | UCAUAGCAAUAUUACGCGCC | -3.62 ± 0.44 | -1.88 ± 0.33
65 | UCAUAGCAAUAUUACGGAAU | -3.32 ± 0.33 | -3.09 ± 0.47
66 | UCAUAGCAAUAUUACGGCCU | -3.03 ± 0.17 | -2.48 ± 0.31
67 | UCAUAGCAAUAUUACGGCGU | -3.73 ± 0.14 | -3.17 ± 0.19
68 | UCAUAGCAAUAUUACGGCUG | -1.33 ± 0.11 | -1.12 ± 0.14
69 | UCAUAGCAAUAUUACGGCUU | – | -1.48 ± 0.26
70 | UCAUAGCAAUAUUACGGGAU | -3.11 ± 0.18 | -2.87 ± 0.28
71 | UCAUAGCAAUAUUACGGGCA | -1.29 ± 0.11 | -0.42 ± 0.1
72 | UCAUAGCAAUAUUACGGUUU | -3.72 ± 0.28 | -1.92 ± 0.22

Row | Sequence | self-splicing fitness (ln) (30 °C) | self-splicing fitness (ln) (37 °C)
73 | UCAUAGCAAUAUUACGUACA | -2.15 ± 0.14 | -1.46 ± 0.12
74 | UCCAAGCAAUAUUACGAACG | -2.64 ± 0.15 | -1.62 ± 0.23
75 | UCCAAGCAAUAUUACGACCU | -2.9 ± 0.26 | -1.95 ± 0.26
76 | UCCAAGCAAUAUUACGACGG | -0.354 ± 0.076 | 0.164 ± 0.1
77 | UCCAAGCAAUAUUACGAGUA | -0.957 ± 0.099 | -0.576 ± 0.084
78 | UCCAAGCAAUAUUACGAUUC | -2.6 ± 0.37 | -2.18 ± 0.34
79 | UCCAAGCAAUAUUACGCACA | -0.502 ± 0.092 | -0.309 ± 0.099
80 | UCCAAGCAAUAUUACGCGUG | -4.16 ± 0.21 | -2.53 ± 0.2
81 | UCCAAGCAAUAUUACGCUAA | -2.62 ± 0.14 | -1.36 ± 0.13
82 | UCCAAGCAAUAUUACGCUAU | -3.98 ± 0.47 | -2.26 ± 0.23
83 | UCCAAGCAAUAUUACGGAAA | -2.19 ± 0.2 | -1.51 ± 0.23
84 | UCCAAGCAAUAUUACGGAUC | -3.49 ± 0.15 | -2.9 ± 0.16
85 | UCCAAGCAAUAUUACGGGAC | -3.59 ± 0.25 | -1.24 ± 0.21
86 | UCCAAGCAAUAUUACGGGUC | -3.16 ± 0.13 | -2.17 ± 0.14
87 | UCCAAGCAAUAUUACGGUAU | -2.72 ± 0.14 | -2.02 ± 0.12
88 | UCCAAGCAAUAUUACGGUGC | -3.58 ± 0.14 | -2.44 ± 0.12
89 | UCCAAGCAAUAUUACGGUGG | -2.08 ± 0.079 | -0.995 ± 0.096
90 | UCCAAGCAAUAUUACGUAGA | -0.92 ± 0.06 | 0.437 ± 0.092
91 | UCCAAGCAAUAUUACGUAUG | -4.08 ± 0.19 | -2.36 ± 0.2
92 | UCCAAGCAAUAUUACGUCAA | -2.68 ± 0.19 | -0.871 ± 0.1
93 | UCCAAGCAAUAUUACGUUGA | -0.725 ± 0.061 | -0.109 ± 0.073
94 | UCCCAGCAAUAUUACGAAAU | -3.28 ± 0.16 | -1.76 ± 0.2
95 | UCCCAGCAAUAUUACGAAGU | -2.04 ± 0.1 | -1.14 ± 0.11
96 | UCCCAGCAAUAUUACGACGA | -0.00629 ± 0.056 | 0.0828 ± 0.065
